Test [1] concerns the target E. fergusonii BrxB WT (Escherichia fergusonii). Put plainly: SEC; analytical SEC of BrxB alone on Superdex 75 increase 10/300 GL, 10 μM, 20 mM Tris HCl pH 7.9, 150 mM NaCl; monomer and dimer.
The target is the same in test [2]. As to the kind of experiment: native MS; collected BrxB SEC peaks exchanged into 10 mM ammonium bicarbonate, 0.5 mg/ml, ES+-ToF MS (Xevo QToF).

On to E. fergusonii BrxB WT (natural protein), for which the stoichiometry N in test [1] and in test [2] was 2 each time.

The values are drawn from paper doi:10.1101/2025.03.26.645558.
